Assay results taken from article PMC12501226.

Target: SARS-CoV-2 spike HexaPro protein (SARS-CoV-2)
Assay: SPR

Substance | Kd | koff | kon
ACE2 monomer (human extracellular ACE2 domain, residues 18-615, cut from ACE2-TEV-Fc) (from UniProt Q9BYF1 18-615) (domain or fragment) | 49 nM | 0.0073 s⁻¹ | 150000 M⁻¹ s⁻¹
T1A (collagen XVIII trimerization domain, 1-residue G/S linker, ACE2 18-615) (from UniProt P39060;Q9BYF1) | 0.1 nM | – | –
T3A (collagen XVIII trimerization domain, 3-residue G/S linker, ACE2 18-615) (from UniProt P39060;Q9BYF1) | 0.37 nM | – | –
T5A (collagen XVIII trimerization domain, 5-residue G/S linker, ACE2 18-615) (from UniProt P39060;Q9BYF1) | 0.69 nM | – | –
